Reference: paper PMC2693034

Experiments:
[1] = target: Qn(1-57), N-terminal domain of IcmQ (Legionella pneumophila); assay: SEC
[2] = target: IcmQ with a C-terminal 6xHis-tag (Legionella pneumophila); assay: […]
[3] = target: IcmQ with a C-terminal 6xHis-tag (Legionella pneumophila); assay: SEC

| Substance | stoichiometry N [1] | stoichiometry N [2] | stoichiometry N [3] |
| --- | --- | --- | --- |
| Qn(1-57), N-terminal domain of IcmQ (domain or fragment) | 2 |  |  |
| IcmQ with a C-terminal 6xHis-tag (natural protein) |  | 2 | 2 |
